Assay results from patent US20120115948A1.

Biological target: mitotic APC (Anaphase-Promoting Complex immunoprecipitated from mitotic Xenopus extract) (Xenopus)
Assay: immunoprecipitated APC-Cdc20 resuspended in mitotic extract with TAME, beads re-isolated, Western blot

half-life of dissociation: 1 min
Substance: Cdc20 (endogenous Xenopus Cdc20)
